Results reported in publication PMC5114276.

What was measured:
[1] = biological target: connexin36 (Cx36), rat, full length, fluorescently tagged (rat) (UniProt O70610)
[2] = biological target: Cx36 mutant G276A, rat, full length, fluorescently tagged (rat) (UniProt O70610); experiment: FRET or BRET; acceptor bleach FRET on a confocal microscope, Neuro2a cells 48 h after transient co-transfection; read at gap junction plaques (GJP) or at vesicles; non-stimulated or with 2 mM [Ca2+]E and 2 μM ionomycin, 24 μM BAPTA-AM or 10 μM W-7; FRET distance calculated from the efficiency (Ro 5.09), threshold 10 nm
[3] = biological target: Cx36 mutant R278A, rat, full length, fluorescently tagged (rat) (UniProt O70610); experiment: as above
[4] = biological target: connexin36 (Cx36), rat, full length, fluorescently tagged (rat) (UniProt O70610); experiment: as above

Substance: calmodulin (CaM), rat, full length, fluorescently tagged (from UniProt P0DP29 1-149) (natural protein)
- ethidium bromide fluorescence recovery after photobleaching in pairs of Neuro2a cells expressing Cx36–ECFP (CaM of the cells), non-stimulated [1]: 5.82%
- ethidium bromide fluorescence recovery after photobleaching in pairs of Neuro2a cells expressing Cx36–ECFP (CaM of the cells), stimulated with 2 mM [Ca2+]E and 2 μM ionomycin [1]: 47.5%
- ethidium bromide fluorescence recovery after photobleaching in pairs of Neuro2a cells expressing Cx36–ECFP, CaM blocked with 10 μM W-7, non-stimulated [1]: 16.6%
- ethidium bromide fluorescence recovery after photobleaching in pairs of Neuro2a cells expressing Cx36–ECFP, CaM blocked with 10 μM W-7, stimulated with 2 mM [Ca2+]E and 2 μM ionomycin [1]: 3.77%
- FRET distance (vesicles, non-stimulated) [2]: 8.16 nm
- FRET distance (vesicles, stimulated with Ca2+ and ionomycin) [2]: 7.48 nm
- FRET efficiency (vesicles, non-stimulated) [2]: 6.61%
- FRET efficiency (vesicles, stimulated with Ca2+ and ionomycin) [2]: 9.74%
- FRET distance (vesicles, non-stimulated) [3]: 9.33 nm
- FRET distance (vesicles, stimulated with Ca2+ and ionomycin) [3]: 8.26 nm
- FRET efficiency (vesicles, non-stimulated) [3]: 2.84%
- FRET efficiency (vesicles, stimulated with Ca2+ and ionomycin) [3]: 6.54%
- FRET distance (GJP, non-stimulated) [4]: 9.11 nm
- FRET distance (GJP, stimulated with Ca2+ and ionomycin) [4]: 9.61 nm
- FRET distance (vesicles, non-stimulated) [4]: 9.27 nm
- FRET distance (vesicles, non-stimulated; panel of the alanine mutants) [4]: 9.15 nm
- FRET distance (vesicles, stimulated with Ca2+ and ionomycin) [4]: 8.09 nm
- FRET distance (vesicles, stimulated with Ca2+ and ionomycin; panel of the alanine mutants) [4]: 7.69 nm
- FRET efficiency (GJP, 10 μM W-7) [4]: 2.7%
- FRET efficiency (GJP, 24 μM BAPTA-AM) [4]: 2.8%
- FRET efficiency (GJP, non-stimulated; FRET pair I Cx36–DsRed, CaM–ECFP) [4]: 3.23%
- FRET efficiency (GJP, non-stimulated; FRET pair II Cx36–ECFP, CaM–DsRed) [4]: 3.35%
- FRET efficiency (GJP, stimulated with Ca2+ and ionomycin) [4]: 2.8%
- FRET efficiency (vesicles, non-stimulated; FRET pair I Cx36–DsRed, CaM–ECFP) [4]: 3.65%
- FRET efficiency (vesicles, non-stimulated; FRET pair II Cx36–ECFP, CaM–DsRed) [4]: 3.09%
- FRET efficiency (vesicles, stimulated with Ca2+ and ionomycin) [4]: 6.38%
- FRET efficiency (vesicles, stimulated with Ca2+ and ionomycin; panel of the alanine mutants) [4]: 8.82%

Substance: calcium insensitive mutant CaM_(E1234Q) (from UniProt P0DP29 1-149) (natural protein)
- FRET distance (GJP, non-stimulated) [4]: 10.9 nm
- FRET distance (GJP, stimulated with Ca2+ and ionomycin) [4]: 10.1 nm
- FRET distance (vesicles, non-stimulated) [4]: 9.96 nm
- FRET distance (vesicles, stimulated with Ca2+ and ionomycin) [4]: 10.8 nm
